Experimental findings from US20260158070A1 (UNIVERSITY OF MARYLAND BALTIMORE, published 2026) are described below.

The target of assay [1] is T1, wild-type K-Ras 4B (in RASless MEFs) (Homo sapiens (Human), UniProt P01116-2 1-185).
T1 construct: Expressed by lentiviral transduction in RASless mouse embryonic fibroblasts; stained on live cells by flow cytometry, in lysates by western blot; also called MEF-K-Ras-4B; 4B splice variant of K-Ras
The experiment in a line: flow cytometry, surface staining of RASless MEFs, 10 µg/ml.

The target in assay [2] is T2, wild-type K-Ras 4A (in RASless MEFs) (Homo sapiens (Human), UniProt P01116 1-186).
T2 construct: Expressed by lentiviral transduction in RASless mouse embryonic fibroblasts; stained on live cells by flow cytometry, in lysates by western blot; also called MEF-K-Ras-4A
Described as above.

B1: Human Anti-K-Ras Antibody 1 (antibody, human IgG1, lambda, N297G, V domains shown)
VH: EVQLVQSGGGVVQPGRSLRLSCAASGFTSRHPGMHWVRQAPGKGLEWVAVISHDGSKKYYADSVKGRFTISRDNSKNTLFVQLSSLRPEDTAVYYCATSLYSSMDLWGQGTTVTVSS
VL: QSVVTQPPSVSAAPGQKVTISCSGSNSNIGKNYVSWFQQVPGTAPKLLIFEDNQRPSGIPDRFSASKSGTSASLAISGLQSEDEADYYCAAWDDKFGVHWVFGGGTKLTVLG
notes: also called human K-Ras antibody 1; Human K-RAS Antibody 1
In the case of B1, the binding result in assay [1] and in assay [2] was “binds” in each case.
